Results: patent US12018084B2, “Anti-CXCR2 antibodies and uses thereof” (Cephalon LLC, priority 2018, dated 2024)

T1: Murine CXCR2 (Mus musculus, UniProt P35343)
T1 construct: expressed in transfected cells
T1 sequence (P35343 1-359): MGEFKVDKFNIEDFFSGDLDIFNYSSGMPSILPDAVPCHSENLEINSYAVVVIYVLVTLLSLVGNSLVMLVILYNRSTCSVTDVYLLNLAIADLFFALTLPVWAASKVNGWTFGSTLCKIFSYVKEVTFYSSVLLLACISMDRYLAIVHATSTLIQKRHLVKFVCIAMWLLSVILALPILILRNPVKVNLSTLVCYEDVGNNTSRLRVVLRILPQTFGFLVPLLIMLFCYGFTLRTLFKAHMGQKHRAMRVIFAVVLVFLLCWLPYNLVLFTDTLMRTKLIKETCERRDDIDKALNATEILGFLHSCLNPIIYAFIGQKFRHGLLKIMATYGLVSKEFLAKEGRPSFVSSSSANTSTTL

T2: Human CXCR2 (Homo sapiens, UniProt P25025)
T2 sequence (P25025 1-360): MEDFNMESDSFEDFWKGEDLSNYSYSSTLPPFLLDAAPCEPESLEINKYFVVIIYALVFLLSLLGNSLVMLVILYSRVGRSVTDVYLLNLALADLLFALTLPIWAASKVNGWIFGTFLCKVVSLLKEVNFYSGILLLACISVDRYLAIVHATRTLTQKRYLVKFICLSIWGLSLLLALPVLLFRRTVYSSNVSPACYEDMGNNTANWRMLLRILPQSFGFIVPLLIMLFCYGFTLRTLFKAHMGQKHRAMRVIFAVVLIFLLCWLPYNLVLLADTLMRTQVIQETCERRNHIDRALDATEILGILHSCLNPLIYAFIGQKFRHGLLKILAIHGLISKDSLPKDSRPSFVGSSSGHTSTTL


Assays:
Murine CXCR2 = target: T1, Murine CXCR2; assay: cELISA of hybridoma supernatants on cells transfected with murine CXCR2; format: binding; conditions: hybridoma supernatant; fluorescence units relative to positive control (100%)
Human CXCR2 = target: T2, Human CXCR2; assay: cELISA of hybridoma supernatants on cells transfected with human CXCR2; format: binding; parameters: host or cells: Expi293F cells, vector pTT5; conditions: hybridoma supernatant; fluorescence units relative to positive control (100%)
Experimental: To generate hybridomas which produced monoclonal antibodies to human CXCR2, splenocytes and/or lymph node cells from animals with the highest anti-CXCR2 titres were isolated and fused to mouse myeloma cells (ATCC, CRL-1580). Cells were plated at approximately 1×10^5 cells/mL in flat bottom microtiter plates, followed by a two week incubation in selective medium (10% FCS and 1×HAT (Sigma)). Hybridomas were expanded by serial passage through four media changes in 96-well plates (96-well stages 1 to 4), then, where required, expanded into T25 and T75 flasks. […] Bound antibodies were detected using a goat anti-rat IgG-HRP (Southern Biotech, #3030-05) secondary antibody.
A panel of hybridomas was generated using lymph nodes and spleen cells from the transgenic rats engineered to express human variable region sequences. A cellular ELISA (cELISA) was used to detect human CXCR2 binding activity in supernatants taken during the expansion process for the hybridomas (Table 5). Hybridomas that retained expression of antibodies that bound CXCR2 after several passages were selected for DNA sequencing.

Row | Molecule | Murine CXCR2 % Positive (Murine CXCR2) [%] | Human CXCR2 % Positive (Human CXCR2) [%]
1 | BKO-5E8: VH SEQ ID NO: 21, VL SEQ ID NO: 22 (antibody, V domains shown, BKO_5E8_H5_C05_VH; BKO_5E8_L3_C03_VL) VH: EVQLLESGGGLVQPGGSLRLSCAASGFTFSSYAMSWVRQAPGRGLEWVSAIRGSGAGTYYADSMKGRFTISRDNSKDTLYLLMNSLRAEDTAVYYCSKLEAVSGTGKYFQHWGQGTLVTVSS VL: SYELTQPPSVSVSPGQTANITCSGDTLGDKFACWYQQKPGQSPVLVIYQDTKRPSGIPERFSGSKSGITATLTISGTQAMDEADFYCQAWNSRGVVFGGGTRLTVL | 8 | 109
2 | BKO-1D1: VH SEQ ID NO: 5, VL SEQ ID NO: 6 (antibody, V domains shown, BKO_1D1_VH; BKO_1D1_VL) VH: EVQLLESGGGLVQPGGSLRLSCAASKLTFKNSAMSWVRQAPGKGLEWVSAITGSGGRTYYADSVKGRFTISRDNSKNTLYLQMNSLRAEDTAIYYCAIQMGYWGQGILVTVSS VL: QSALTQPPSASGSPGQSVTISCTGTSSDVGGYNYVSWYQQHPGKAPKLMIYEVNKRPSGVPARFSGSKSGNTASLTVSGLQAEDEADYYCSSYAGSNNFGVFGGGTKLTVL | 7 | 67
3 | BKO-2D8: VH SEQ ID NO: 9, VL SEQ ID NO: 10 (antibody, V domains shown, BKO_2D8_VH; BKO_2D8_VL) VH: EVQLLESGGGLVQPGGSLRLSCAASGYTFTSSTMSWVRQAPGKGLEWVTAISGRGGRTYYADSVKGRFTISRDNSKNTLYLQMNSLRAEDTAVYYCAIQLGNWGQGILVTVSS VL: QSALTQPPSASGSPGQSVTISCTGTSSDIGGYNYVSWYQQHPGKAPKLVIYEVNMRPSGVPARFSGSKSGNTASLTVSGLQAEDEADYYCSSYAGNDNFGVFGGGTKLSVL | 7 | 100
4 | BKO-3F4: VH SEQ ID NO: 15, VL SEQ ID NO: 16 (antibody, V domains shown, BKO_3F4_VH; BKO_3F4_L11_A11_VL) VH: EVQLLESGGGLVQPGGSLRLSCAASGLTFSSYAMSWVRQAPGKGLEWVSAISGSGGKIYYADSVKGRFTISRDNSKNTLYLQMNSLRAEDTAVYYCAIQVGYWGQGTLVTVSS VL: QSALTQPPSASGSPGQSVTMSCTGTSSDVGGYNYVTWYQQHPGKAPKLMIYEVSKRPSGVPARFSGSKSGNTASLTVSGLQAEDEADYYCSSYAGPNNFGVFGGGTKLTVL | 42 | 86
5 | BKO-4F10: VH SEQ ID NO: 19, VL SEQ ID NO: 20 (antibody, V domains shown, BKO_4F10_VH; BKO_4F10_VL) VH: QVQLVQSGAEVKKPGASVKVSCKASGYTFTGYYIHWVRQAPGQGLEWMGRFNPNNGGTNYAQRFQGRVTMTRDTSISTAYMELSRLRSDDTAVYYCARGPTIRLWFDNWFDSWGQGTLVTVSS VL: QSALTQPASVSGSPGQSITISCTGTSSDVGGYNYVSWYQQHPGKAPKLMIYDVSNRPSGISNRFSGSKSGNTASLTISGLQAEDEADYYCSSYTSSSTWVFGGGTKLTVL | 7 | 118
6 | BKO-1A1: VH SEQ ID NO: 1, VL SEQ ID NO: 2 (antibody, V domains shown, BKO_1A1_VH; BKO_1A1_VL) VH: QLQLQESGPGLVKPSETLSLTCTVSGGSIRTSSYYWGWIRQPPGKGLEYIGSIYYSGTTYYNPSLKSRVTMSVDTSKNQFSLKMSSVTAADSAVYYCARHGRVREVPPFDYWGQGTLVTVSS VL: SSELTQDPAVSVALGQTVRITCQGDSLRYYYASWYQQKPGQAPVLVIYDENSRPSGIPDRFSGSSSGNTASLSITGTQAEDEADYYCNSRDTSGNHWAFGGGTKLTVL | 6 | 38

Other lines, results leading:

Row | Murine CXCR2 % Positive (Murine CXCR2) [%] | Human CXCR2 % Positive (Human CXCR2) [%] | Molecule
7 | 6 | 95 | BKO-8B6: VH SEQ ID NO: 37, VL SEQ ID NO: 38 (antibody, V domains shown, BKO_8B6_VH; BKO_8B6_VL) VH: EVQLLESGGGLVQPGGSLRLSCAASGFTFSSNAMSWVRQAPGKGLEWVSAISNSGRSTYYADSVKGRFTISRDSSKNTLYLLMNSLRAEDSAVYYCAIKLGYWGQGSLVTVSS VL: QSALTQPPSASGSPGQSVTISCTGTSSDVGGYNYVSWYQQHPGKAPKLMMYEVSKRPSGVPDRFSGSKSGNTASLTVSGLQAEDEADYYCSSYAGSDNFGVFGGGTRLTVL
8 | 22 | 101 | BKO-5G11: VH SEQ ID NO: 23, VL SEQ ID NO: 24 (antibody, V domains shown, BKO_5G11_VH; BKO_5G11_VL) VH: EVQLLESGGGLVQPGGSLRLSCAVSGFTFSNYAMTWVRQAPGKGLEWVSAISGRGSRTYYADSVKGRFTISRDTSKNTLYLQMNSLRAEDTAVYYCAKMDYWGQGTLVTVSS VL: QSALTQPPSASGSPGQSVTISCTGTSSDVGGYNYVSWYQQHPGKAPKLMIFEVSKRPSGVPDRFSGSKSGNTASLTVSGLQAEDEADYYCSSYAGSNNFGVFGGGTKLTVL
9 | 4 | 73 | BKO-7C11: VH SEQ ID NO: 31, VL SEQ ID NO: 32 (antibody, V domains shown, BKO_7C11_H6_B06_VH; BKO_7C11_G01_VL) VH: QVQLQQWGAGLLKPSETLSLTCAVYGGSFSGYYWSWIRQPPGKGLEWIGEINHSRNTNYNPSLKSRVTISVDTSKNQFSLKLSSVTAADTAVYYCARGEVRGVFTLYWYFDVWGRGTLVTVSS VL: SSELTQGPAVSVALGQTVRITCQGNSLRFYYASWYQQRPGQAPILVIYDKNNRPSGIPDRFSGSSSGNTASLTITGAQAEDEADYYCNSRDSSGYYMIFGGGTKLTVL
10 | 6 | 124 | BKO-8C4: VH SEQ ID NO: 39, VL SEQ ID NO: 40 (antibody, V domains shown, BKO_8C4_VH; BKO_8C4_VL) VH: QLQLQESGPGLVKPSETLSLTCTVSGGSIRTSSYYWGWIRQPPGKGLEYIGSIYYSGTTYYNPSLKSRVTMSVDTSKNQFSLKLSSVTAADTAVYYCARHGRVREVPPFDYWGQGTLVTVSS VL: SSELTQDPAVSVALGQTVRITCQGDSLRYYYASWYQQKPGQAPVLVIYDENSRPSGIPDRFSGSSSGNTASLRITGTQAEDEADYYCNSRDTSGNHWAFGGGTKLTVL
